This is an account of results in patent publication US20210361653A1 (MAYO FOUNDATION FOR MEDICAL EDUCATION AND RESEARCH, published 2021).

The target of experiment [1] is T1, BRD3 SBC motif-deleted mutant (human, UniProt Q15059 1-726, limits assumed).
T1 construct: Deletion mutant; also called FLAG-BRD3 mutant; not shown: FLAG tag
In words: co-IP with anti-FLAG antibody, 293T cells.

Experiment [2] deals with T2, BRD4 SBC motif-deleted mutant (human, UniProt O60885 1-1362, limits assumed).
T2 construct: Deletion mutant; also called FLAG-BRD4 mutant; not shown: FLAG tag
In words: co-IP with anti-FLAG antibody, 293T cells.

The target in experiment [3] is T3, BRD2 SBC motif-deleted mutant (human, UniProt P25440 1-801, limits assumed).
T3 construct: Deletion mutant; also called FLAG-BRD2 mutant; not shown: FLAG tag
The experiment in a line: co-IP with anti-FLAG antibody, 293T cells.

The target of a further experiment is T4, BRD2 (human, UniProt P25440 1-801).
T4 construct: also called bromodomain containing 2; FLAG-BRD2
In words: co-immunoprecipitation, 293T (ectopic) and LNCaP (endogenous) cells. As for the experimental part:
(§1) To immunoprecipitate the ectopically expressed FLAG-tagged proteins, transfected cells were lysed 24 hours post-transfection in BC100 buffer. The whole-cell lysates were immunoprecipitated with the monoclonal anti-FLAG antibody-conjugated M2 agarose beads (Sigma-Aldrich) at 4° C. overnight. After three washes with lysis buffer, followed by two washes with BC100 buffer, the bound proteins were eluted using FLAG-Peptide (Sigma-Aldrich) prepared in BC100 for 3 hours at 4° C. The eluted protein sample was resolved by SDS-PAGE. To immunoprecipitate the endogenous proteins, cells were lysed with 1× cell lysis buffer (Cell Signaling Technology), and the lysate was centrifuged. The supernatant was precleared with protein AIG beads (Sigma-Aldrich) and incubated with the indicated antibody and protein A/G beads at 4° C. overnight. Beads were washed five times with lysis buffer and resuspended in sample buffer and analyzed by SDS-PAGE.
(§2) To identify new degradation substrates of SPOP, yeast two-hybrid screens using the full-length SPOP as bait were performed.

The target in the next experiment is T5, BRD3 (human, UniProt Q15059 1-726).
T5 construct: also called bromodomain containing 3; FLAG-BRD3
Described as above. As for the experimental part: as §1, §2

B1: SPOP, wild-type (other, human, UniProt O43791 1-374, looked up)
chain: MSRVPSPPPPAEMSSGPVAESWCYTQIKVVKFSYMWTINNFSFCREEMGEVIKSSTFSSGANDKLKWCLRVNPKGLDEESKDYLSLYLLLVSCPKSEVRAKFKFSILNAKGEETKAMESQRAYRFVQGKDWGFKKFIRRDFLLDEANGLLPDDKLTLFCEVSVVQDSVNISGQNTMNMVKVPECRLADELGGLWENSRFTDCCLCVAGQEFQAHKAILAARSPVFSAMFEHEMEESKKNRVEINDVEPEVFKEMMCFIYTGKAPNLDKMADDLLAAADKYALERLKVMCEDALCSNLSVENAAEILILADLHSADQLKTQAVDFINYHASDVLETSGWKSMVVSHPHLVAEAYRSLASAQCPFLGPPRKRLKQS
notes: also called SPOP-WT; Myc-SPOP
As to B1, the binding result in experiment [1] is “no binding”; in experiment [2], “no binding”; in experiment [3] it was “no binding”; with BRD2 it was “binds”; in the experiment with BRD3 it was “binds”.
